Literature values as cited in paper PMC10764639.
pKd: −log10 of the molar value.

Biological target: TLR4 (Homo sapiens) (UniProt O00206)
Chain of UniProt O00206 (O00206 24-839): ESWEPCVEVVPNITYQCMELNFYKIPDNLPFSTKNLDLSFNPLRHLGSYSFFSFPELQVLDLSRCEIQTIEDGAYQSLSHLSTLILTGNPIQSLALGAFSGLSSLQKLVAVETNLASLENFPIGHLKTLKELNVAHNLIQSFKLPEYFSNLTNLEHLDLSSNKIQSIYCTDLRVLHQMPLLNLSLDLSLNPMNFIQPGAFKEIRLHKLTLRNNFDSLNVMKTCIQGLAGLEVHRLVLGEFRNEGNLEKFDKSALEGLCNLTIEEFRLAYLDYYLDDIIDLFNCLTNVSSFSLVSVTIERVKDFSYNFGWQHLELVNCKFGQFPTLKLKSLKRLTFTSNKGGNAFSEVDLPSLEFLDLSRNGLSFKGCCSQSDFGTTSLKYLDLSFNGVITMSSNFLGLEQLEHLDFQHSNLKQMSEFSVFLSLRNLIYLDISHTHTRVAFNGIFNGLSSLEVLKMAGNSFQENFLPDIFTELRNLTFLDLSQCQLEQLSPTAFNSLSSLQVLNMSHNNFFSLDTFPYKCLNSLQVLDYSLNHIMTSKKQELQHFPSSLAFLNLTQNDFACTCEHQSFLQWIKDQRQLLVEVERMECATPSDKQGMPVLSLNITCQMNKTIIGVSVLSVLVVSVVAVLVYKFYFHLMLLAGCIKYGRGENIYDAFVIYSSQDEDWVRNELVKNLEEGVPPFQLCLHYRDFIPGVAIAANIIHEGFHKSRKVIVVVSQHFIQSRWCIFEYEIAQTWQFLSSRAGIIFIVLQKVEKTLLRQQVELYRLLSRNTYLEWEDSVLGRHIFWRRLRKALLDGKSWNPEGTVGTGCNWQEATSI

- pKd: 7.92
Substance: HMGB1 (from UniProt P09429)
